Measurements published in paper PMC10098051.

Target: PeSy1‐His recombinant protein (Saccharothrix yanglingensis Hhs.015)
Test: MST; PeSy1‐His labelled with protein labelling kit RED, in PBST (PBS with 0.05% Tween 20); serially diluted RSy1‐GST in 16 standard treated capillaries; Monolith NT.115, excitation power 40%, MST power medium; GST as reference control; three biological repeats

With “RSy1‐GST recombinant protein (natural protein)” as the substance, how does the Kd read?
The Kd was 8.77 µM.
